According to the supplement of paper PMC7877785:
± gives the uncertainty stated by the source.

Experiment: self-splicing fitness, log relative to wild type (ln ratio); higher = more splicing; Tetrahymena group I intron in knt gene, E. coli kanamycin selection, DiMSum; sequences stand for … in CUCUCU…GGAGGGAAAAGUUAUCAGGCAUGCACCUGGUAGCUAGUCUUUAAACCAAUAGAUUGCAUCGGUUUAAAAGGCAAGACCGUCAAAUUGCGGGAAAGGGGUCAACAGCCGUUCAGUACCAAGUCUCAGGGGAAACUUUGAGAUGGCCUUGCAAAGGGUAUGGUAAUAAGCUGACGGACAUGGUCCUAACCACGCAGCCAAGUCCUAAGUCAACAGAUCUUCUGUUGAUAUGGAUGCAGUUCACAGACUAAAUGUCGGUCGGGGAAGAUGUAUUCUUCUCAUAAGAUAUAGUCGGACCUCUCCUUAAUGGGAGCUAGCGGAUGAAGUGAUGCAACACUGGAGCCGCUGGGAACUAAUUUGUAUGCGAAAGUAUAUUGAUUAGUUUUGGAGUACUCGUGGUCG
Procedure, shortened: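 The eight P1ex-region nucleotides of an intron in the knt kanamycin-resistance gene on pET-22b(+) were all randomised and the library put into E. coli BL21(DE3). Six replicate transformations were grown overnight at 37°C or 30°C on LB agar with or without 25 μg/mL kanamycin, together with 100 μg/mL carbenicillin, 50 μM IPTG and 0.2% rhamnose. Colonies were pooled and amplicon-sequenced on an Illumina HiSeq 2500. Fitness from DiMSum is the error-weighted combination of wild-type-normalised replicate fold changes, kanamycin over none.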

| Sequence | self-splicing fitness (ln) (30 °C) | self-splicing fitness (ln) (37 °C) |
| --- | --- | --- |
| UUUCAGCAAUAUUACGACGU | -1.71 ± 0.17 | -0.698 ± 0.18 |
| UUUCAGCAAUAUUACGACUA | 0.605 ± 0.12 | 0.612 ± 0.12 |
| UUUCAGCAAUAUUACGAGUA | -1.3 ± 0.11 | -0.691 ± 0.1 |
| UUUCAGCAAUAUUACGAUAU | -1.88 ± 0.15 | -0.0425 ± 0.12 |
| UUUCAGCAAUAUUACGCAAG | -1.27 ± 0.11 | -0.106 ± 0.13 |
| UUUCAGCAAUAUUACGCCGU | -3.39 ± 0.36 | -1.45 ± 0.26 |
| UUUCAGCAAUAUUACGCGAG | -1.16 ± 0.14 | 0.301 ± 0.15 |
| UUUCAGCAAUAUUACGGAGU | -2.8 ± 0.28 | -1.64 ± 0.38 |
| UUUCAGCAAUAUUACGGCAU | -1.87 ± 0.16 | -1.08 ± 0.19 |
| UUUCAGCAAUAUUACGGGAC | -2.81 ± 0.21 | -1.4 ± 0.19 |
| UUUCAGCAAUAUUACGGGGG | -2.22 ± 0.15 | -1.45 ± 0.16 |
| UUUCAGCAAUAUUACGGGUG | -0.316 ± 0.074 | -0.441 ± 0.087 |
| UUUCAGCAAUAUUACGGUCG | -0.269 ± 0.074 | 0.418 ± 0.11 |
| UUUCAGCAAUAUUACGGUGC | -3.27 ± 0.21 | -3.4 ± 0.39 |
| UUUCAGCAAUAUUACGGUUA | 0.116 ± 0.071 | 0.454 ± 0.077 |
| UUUCAGCAAUAUUACGUAGU | -3.95 ± 0.24 | -2.63 ± 0.18 |
| UUUCAGCAAUAUUACGUAUA | -0.408 ± 0.21 | -0.0411 ± 0.25 |
| UUUCAGCAAUAUUACGUCCA | -0.967 ± 0.14 | 0.0389 ± 0.16 |
| UUUCAGCAAUAUUACGUCGU | -3.77 ± 0.17 | -1.93 ± 0.11 |
| UUUCAGCAAUAUUACGUCUG | -3.65 ± 0.22 | -1.87 ± 0.16 |
| UUUCAGCAAUAUUACGUUAA | -1.45 ± 0.077 | -1.09 ± 0.076 |
| UUUGAGCAAUAUUACGAAAU | -3.72 ± 0.2 | -2.09 ± 0.17 |
| UUUGAGCAAUAUUACGAAGC | -3.58 ± 0.42 | -1.64 ± 0.33 |
| UUUGAGCAAUAUUACGAAUG | -3.15 ± 0.25 | -0.965 ± 0.29 |

| Sequence | self-splicing fitness (ln) (30 °C) | self-splicing fitness (ln) (37 °C) |
| --- | --- | --- |
| UUUGAGCAAUAUUACGACUG | -2.39 ± 0.36 | -1.03 ± 0.39 |
| UUUGAGCAAUAUUACGAGGG | -3.32 ± 0.32 | -0.691 ± 0.24 |
| UUUGAGCAAUAUUACGCAAU | -3.33 ± 0.48 | -1.5 ± 0.46 |
| UUUGAGCAAUAUUACGCGAG | -1.42 ± 0.15 | -0.997 ± 0.2 |
| UUUGAGCAAUAUUACGCGGG | -2.66 ± 0.24 | -1.45 ± 0.21 |
| UUUGAGCAAUAUUACGCUAU | -3.79 ± 0.42 | -2.26 ± 0.23 |
| UUUGAGCAAUAUUACGGAGC | -2.02 ± 0.49 | – |
| UUUGAGCAAUAUUACGGAGU | -2.49 ± 0.28 | – |
| UUUGAGCAAUAUUACGGCUA | -0.914 ± 0.23 | -1.2 ± 0.21 |
| UUUGAGCAAUAUUACGGUUC | -3.67 ± 0.37 | -3.69 ± 0.46 |
| UUUGAGCAAUAUUACGUGGA | -2.53 ± 0.21 | -2.37 ± 0.22 |
| UUUGAGCAAUAUUACGUUAG | – | -1.73 ± 0.35 |
| UUUGAGCAAUAUUACGUUAU | -3.92 ± 0.21 | -1.9 ± 0.16 |
| UUUUAGCAAUAUUACGACAG | -0.158 ± 0.23 | 0.172 ± 0.27 |
| UUUUAGCAAUAUUACGCAAA | -1.98 ± 0.49 | -1.47 ± 0.36 |
| UUUUAGCAAUAUUACGCGUU | -2.55 ± 0.18 | -2.61 ± 0.19 |
| UUUUAGCAAUAUUACGCUCG | -0.861 ± 0.14 | -0.128 ± 0.16 |
| UUUUAGCAAUAUUACGCUCU | -0.0349 ± 0.23 | -0.135 ± 0.18 |
| UUUUAGCAAUAUUACGCUGU | -3.26 ± 0.34 | -1.98 ± 0.33 |
| UUUUAGCAAUAUUACGGCAC | – | -0.642 ± 0.28 |
| UUUUAGCAAUAUUACGGCAG | -0.809 ± 0.11 | -0.727 ± 0.15 |
| UUUUAGCAAUAUUACGGCGA | -0.835 ± 0.17 | 0.114 ± 0.18 |
| UUUUAGCAAUAUUACGGCUA | -2.21 ± 0.44 | -0.365 ± 0.31 |
| UUUUAGCAAUAUUACGGGAC | -2.5 ± 0.26 | -1.83 ± 0.47 |
